The text below walks through data of patent US10471162B2, “Collagen targeted imaging probes” (priority 2014, dated 2019).

The subject of series [1] is pulmonary fibrosis, C57/BL6 mice (bleomycin or sham). Description: in vivo. Format: in vivo, mouse. Conditions: male, C57/BL6, mouse, in vivo, iv, 2.5 h. As to the method: (§1) Pulmonary fibrosis was induced in 7-8-week-old male C57/BL6 mice by transtracheal administration of bleomycin (BM; 2.5 U/kg) in 50 μL of PBS under direct vision using a small cervical incision. Sham animals received only PBS. Animals were placed in a small-animal PET/SPECT/CT scanner (Triumph; TriFoil Imaging), equipped with inhalation anesthesia and heating pad. Each animal was anesthetized with isoflurane (4% for induction, 2-2.5% for maintenance in medical air) and body temperature was kept at 37-38° C. using a heating pad. The femoral vein was cannulated for intravenous delivery of the PET agent. Each mouse was injected with approximately 0.1 mL and 20-50 μCi of ^64Cu-CBP(n), 0.1 mL and 20-50 μCi of ^68Ga-CBP(n) and 0.1 mL and 10-20 μCi of Al^18F-CBP(n) in a 18 mM solution of sucrose in water, followed by saline flush. […] The lungs, blood, urine, heart, liver, left rectus femoris muscle, spleen, small intestine, kidneys, left femur bone were collected from all animals. The tissues were weighed, and radioactivity in each tissue was measured on a gamma counter (CobraII Auto gamma; Packard). The radioactivity in the lung was reported as percent injected dose per gram corrected with the average sham weight, which was calculated by dividing the counts of ^64Cu per average sham tissue weight in gram by the total of counts of the injected dose. The radioactivity in every other tissue was reported as percent injected dose per gram (% ID/g), which was calculated by dividing the counts of ^64Cu per gram of tissue by the total of counts of the injected dose. A p-value of less than 0.05 was considered significant. Uncertainties are expressed as the standard error of the mean.

Series [2] is described as follows: in vivo. The series is classed as in vivo, mouse. Particulars: male, C57/BL6, mouse, in vivo, iv, total radioactivity, Biodistribution % ID/g. How it is done:
as §1

In the case of `CC(C)C[C@H](NC(=O)[C@@H]1CSSC[C@H](NC(=O)[C@H](Cc2c[nH]cn2)NC(=O)[C@H](Cc2c[nH]c3ccccc23)NC(=O)[C@H](CCCCNC(=O)CNC(=O)CCC(C(=O)O)N2CCN(CC(=O)O)CCN(CC(=O)O)CC2)NC(=O)CNC(=O)CCC(C(=O)O)N2CCN(CC(=O)O)CCN(CC(=O)O)CC2)C(=O)N[C@@H]([C@@H](C)O)C(=O)N[C@@H]([C@@H](C)O)C(=O)N[C@@H](CCCCNC(=O)CCC(C(=O)O)N2CCN(CC(=O)O)CCN(CC(=O)O)CC2)C(=O)N[C@@H](Cc2ccccc2)C(=O)N2CCC[C@H]2C(=O)N[C@@H](Cc2c[nH]cn2)C(=O)N[C@@H](Cc2c[nH]cn2)C(=O)N[C@@H](Cc2ccc(O)cc2)C(=O)N1)C(=O)N[C@@H](Cc1ccc(O)cc1)C(=O)N[C@@H](Cc1ccc(-c2ccccc2)cc1)C(N)=O` (single isomer, unassigned) [CBP8], the “Biodistribution % ID/g, blood” value in series [1] turned out to be 0.569 ± 0.102 % ID/g. For the same molecule, the “Biodistribution % ID/g, bone” value in series [1] is 1.117 ± 0.347 % ID/g. The “Biodistribution % ID/g, heart” value in series [1] is given as 0.340 ± 0.032 % ID/g. In series [1], the “Biodistribution % ID/g, kidney” value was 41.063 ± 5.830 % ID/g. The “Biodistribution % ID/g, liver” value in series [1] stood at 1.189 ± 0.113 % ID/g. Also, the “Biodistribution % ID/g, muscle” value in series [1] was 0.927 ± 0.422 % ID/g. Further, the “Biodistribution % ID/g, sm. intestine” value in series [1] was found to be 0.830 ± 0.197 % ID/g. Further, the “Biodistribution % ID/g, spleen” value in series [1] is 0.659 ± 0.141 % ID/g. Besides, the tissue uptake at 2.5 h came out at 0.512 ± 0.181 %ID/g in series [2] (blood); 1.11 ± 0.594 %ID/g in series [2] (bone); 0.242 ± 0.059 %ID/g in series [2] (heart); 30 ± 4.59 %ID/g in series [2] (kidney); 0.95 ± 0.127 %ID/g in series [2] (liver); 0.567 ± 0.247 %ID/g in series [2] (muscle). In addition, the values for the tissue uptake at 2.5 h in series [2] (sm. intestine) and in series [2] (spleen) were 0.42 ± 0.086 %ID/g and 0.462 ± 0.047 %ID/g, respectively.
